The stoichiometry N is the number of molecules, sites or subunits per partner or assembly.

Assay [1] has as its target CreFH1, frataxin homolog from Chlamydomonas reinhardtii, mature form without the mitochondrial transit peptide (Chlamydomonas reinhardtii). Nature of the assay: native gel or EMSA; 8% native PAGE of purified CreFH1 incubated 1 or 3 h with water (control) or 33 uM Fe3+, Cu2+ or Zn2+; 3 ug protein a lane; Coomassie stain, densitometry; monomer to dimer. Background: In EMSA bound probe runs differently from free probe, usually more slowly.

Assay [2] shares this target. In words: native MS; ESI-TOF MS of recombinant CreFH1 after 3 h with Cu2+, Fe3+, Zn2+ or water; carrier 5:95 acetonitrile:ammonium acetate/ammonia 15 mM, pH 7.0; monomer to dimer.

As for “CreFH1, frataxin homolog from Chlamydomonas reinhardtii, mature form without the mitochondrial transit peptide (natural protein)”, in assay [1], the percent of protein as dimer, with Zn2+ or Fe3+ stood at 22%; the percent of total protein as dimer, with Cu2+ turned out to be 40%; the stoichiometry N was determined as 2. Besides, the stoichiometry N in assay [2] was 2.

Values taken from publication PMC9331050.
